In the supplement of paper PMC10126150:
± gives the standard deviation of the averaged measurements.

Test system: ATP
Assay: switch fluorescence ratio, 500 uM ATP over buffer (Cy3 cluster intensity, sum of 5 cycles each) (fold (ratio)); higher = stronger signal-on switching upon ATP binding; sequences stand for … in TCGTCGGCAGCGTCAGATGTGTATAAGAGACAGTTTTTTTTTTTTTTTTTTTTTTTTT…TC
Details: aptamer strand: ATP DNA aptamer (quencher-CACCTGGGGGAGTATTGCGGAGGAAGG + anchor), 100 nM annealed; ATP concentration: 500 uM
How it was run: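 For every switch-domain sequence, the fluorescence ratio is the mean of per-cluster values, each being summed target-cycle Cy3 intensity over summed buffer-cycle Cy3 intensity. Clusters outside 100-1000 RFU were excluded. On a modified Illumina MiSeq flow-cell, the Cy3-labelled switching-strand clusters were annealed to 100 nM quencher-labelled ATP aptamer, imaged in selection buffer and then after 15 min with 500 uM ATP at 22 °C. Five such cycles were run, with NaOH stripping and re-annealing between them.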
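Further: ATP exposure 15 min at 22 °C before imaging.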

Q: How did the switch fluorescence ratio turn out when TTTTTGTGAG was run?
A: 1.01 ± 0.039

Q: How did the switch fluorescence ratio turn out when TTTTTGTTTA was run?
A: 0.971 ± 0.038

Q: With TTTTTTAACA as the sequence, how does the switch fluorescence ratio read?
A: 1.01 ± 0.027

Q: With TTTTTTAATC as the sequence, how does the switch fluorescence ratio read?
A: 1.02 ± 0.03

Q: How did the switch fluorescence ratio turn out when TTTTTTACAT was run?
A: 1.01 ± 0.018

Q: TTTTTTACTC was tested. Which switch fluorescence ratio did it give?
A: 1 ± 0.039

Q: For TTTTTTAGAT, which switch fluorescence ratio is on record?
A: 0.985 ± 0.022

Q: For TTTTTTAGGC, which switch fluorescence ratio is on record?
A: 0.962 ± 0.041

Q: For TTTTTTATAC, which switch fluorescence ratio is on record?
A: 1.02 ± 0.051

Q: Which switch fluorescence ratio does the source give for TTTTTTATCC here?
A: 1.03 ± 0.089

Q: TTTTTTCCCT was tested. Which switch fluorescence ratio did it give?
A: 1.08 ± 0.12

Q: Which switch fluorescence ratio does the source give for TTTTTTCCG here?
A: 1.08 ± 0.1

Q: How did the switch fluorescence ratio turn out when TTTTTTCGGA was run?
A: 1.01 ± 0.073

Q: How did the switch fluorescence ratio turn out when TTTTTTCT was run?
A: 0.987 ± 0.02

Q: For TTTTTTCTAA, which switch fluorescence ratio is on record?
A: 0.973 ± 0.015

Q: How did the switch fluorescence ratio turn out when TTTTTTGAAG was run?
A: 0.997 ± 0.03

Q: With TTTTTTGAGC as the sequence, how does the switch fluorescence ratio read?
A: 0.996 ± 0.031

Q: How did the switch fluorescence ratio turn out when TTTTTTGATC was run?
A: 0.999 ± 0.034

Q: TTTTTTGCAT was tested. Which switch fluorescence ratio did it give?
A: 1.07 ± 0.19

Q: With TTTTTTGCCT as the sequence, how does the switch fluorescence ratio read?
A: 1.01 ± 0.038

Q: For TTTTTTGCGG, which switch fluorescence ratio is on record?
A: 1.08 ± 0.22

Q: For TTTTTTGGAA, which switch fluorescence ratio is on record?
A: 1.1 ± 0.16

Q: With TTTTTTGGAG as the sequence, how does the switch fluorescence ratio read?
A: 1.01 ± 0.023

Q: For TTTTTTGGCC, which switch fluorescence ratio is on record?
A: 0.993 ± 0.036

Q: With TTTTTTGGT as the sequence, how does the switch fluorescence ratio read?
A: 0.986 ± 0.016

Q: Which switch fluorescence ratio does the source give for TTTTTTGTCA here?
A: 1.02 ± 0.042

Q: For TTTTTTTAA, which switch fluorescence ratio is on record?
A: 0.991 ± 0.026

Q: TTTTTTTAAA was tested. Which switch fluorescence ratio did it give?
A: 0.999 ± 0.027

Q: TTTTTTTCCG was tested. Which switch fluorescence ratio did it give?
A: 1.012 ± 0.0081

Q: With TTTTTTTCGA as the sequence, how does the switch fluorescence ratio read?
A: 1.01 ± 0.022

Q: Which switch fluorescence ratio does the source give for TTTTTTTCGG here?
A: 1 ± 0.027

Q: Which switch fluorescence ratio does the source give for TTTTTTTGC here?
A: 1 ± 0.02

Q: Which switch fluorescence ratio does the source give for TTTTTTTGCG here?
A: 1.02 ± 0.069

Q: How did the switch fluorescence ratio turn out when TTTTTTTTAA was run?
A: 1.01 ± 0.045

Q: TTTTTTTTCC was tested. Which switch fluorescence ratio did it give?
A: 1.15 ± 0.4
